Data reported in the supplement of paper PMC9112550, “Optimization of the antimicrobial peptide Bac7 by deep mutational scanning” (BMC Biology, 2022).

system: Escherichia coli TOP10; experiment: shrunken log2 fold change of peptide-encoding DNA abundance (4.5 h post-induction vs induction); higher = less antimicrobial activity (less host growth inhibition); details: time post-induction: 4.5 h; library: site-saturation at positions 5, 18, 19, 20
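Note: peptides expressed intracellularly from a pBAD plasmid library in pooled LB shake-flask culture, induced with 0.3% L-arabinose, DNA abundance read by NGS, three biological replicates, DESeq2 with apeglm shrinkage.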

In order of rising “shrunken log2 fold change” value:
1. RRIRIRPPRLPRPRPRPYIMPRP  -1.15
2. RRIRLRPPRLPRPRPRPYLVPRP  -1.06
3. RRIRLRPPRLPRPRPRPHREPRP  -0.969
4. RRIRLRPPRLPRPRPRPSHSPRP  -0.775
5. RRIRFRPPRLPRPRPRPHTEPRP  -0.731
6. RRIRYRPPRLPRPRPRPSLLPRP  -0.727
7. RRIRTRPPRLPRPRPRPINHPRP  -0.718
8. RRIRERPPRLPRPRPRPCTKPRP  -0.63
9. RRIRSRPPRLPRPRPRPNILPRP  -0.61
10. RRIRYRPPRLPRPRPRPMYTPRP  -0.597
11. RRIRERPPRLPRPRPRPSTIPRP  -0.551
12. RRIRFRPPRLPRPRPRPNMSPRP  -0.54
13. RRIRSRPPRLPRPRPRPFYNPRP  -0.54
14. RRIRTRPPRLPRPRPRPMYFPRP  -0.53
15. RRIRLRPPRLPRPRPRPSCSPRP  -0.527
16. RRIRIRPPRLPRPRPRPSNTPRP  -0.515
17. RRIRPRPPRLPRPRPRPYKPPRP  -0.481
18. RRIRNRPPRLPRPRPRPKHYPRP  -0.399
19. RRIRLRPPRLPRPRPRPEKYPRP  -0.397
20. RRIRHRPPRLPRPRPRPQSTPRP  -0.395
21. RRIRWRPPRLPRPRPRPISQPRP  -0.392
22. RRIRFRPPRLPRPRPRPHKLPRP  -0.377
23. RRIRCRPPRLPRPRPRPNQIPRP  -0.367
24. RRIRERPPRLPRPRPRPIMPPRP  -0.356
25. RRIRKRPPRLPRPRPRPSNYPRP  -0.312
26. RRIRTRPPRLPRPRPRPTCVPRP  -0.308
27. RRIRERPPRLPRPRPRPLTMPRP  -0.308
28. RRIRDRPPRLPRPRPRPWICPRP  -0.298
29. RRIRLRPPRLPRPRPRPCFDPRP  -0.293
30. RRIRRRPPRLPRPRPRPCMMPRP  -0.292
31. RRIRARPPRLPRPRPRPLYFPRP  -0.282
32. RRIRTRPPRLPRPRPRPCQMPRP  -0.267
33. RRIRDRPPRLPRPRPRPVHSPRP  -0.243
34. RRIRNRPPRLPRPRPRPANTPRP  -0.242
35. RRIRSRPPRLPRPRPRPCHMPRP  -0.233
36. RRIRLRPPRLPRPRPRPWFSPRP  -0.225
37. RRIRNRPPRLPRPRPRPPTCPRP  -0.221
38. RRIRERPPRLPRPRPRPWYRPRP  -0.217
39. RRIRCRPPRLPRPRPRPLCHPRP  -0.213
40. RRIRCRPPRLPRPRPRPQFDPRP  -0.211
41. RRIRVRPPRLPRPRPRPLHKPRP  -0.192
42. RRIRFRPPRLPRPRPRPWSEPRP  -0.173
43. RRIRWRPPRLPRPRPRPKFIPRP  -0.17
44. RRIRHRPPRLPRPRPRPFDVPRP  -0.168
45. RRIRSRPPRLPRPRPRPKDVPRP  -0.162
46. RRIRHRPPRLPRPRPRPRAFPRP  -0.146
47. RRIRDRPPRLPRPRPRPVHIPRP  -0.144
48. RRIRFRPPRLPRPRPRPVCKPRP  -0.139
49. RRIRVRPPRLPRPRPRPQWFPRP  -0.134
50. RRIRGRPPRLPRPRPRPVWMPRP  -0.117
51. RRIRCRPPRLPRPRPRPCKRPRP  -0.115
52. RRIRIRPPRLPRPRPRPKWQPRP  -0.114
53. RRIRDRPPRLPRPRPRPMILPRP  -0.111
54. RRIRARPPRLPRPRPRPMHSPRP  -0.106
55. RRIRHRPPRLPRPRPRPLVRPRP  -0.103
56. RRIRQRPPRLPRPRPRPYVVPRP  -0.102
57. RRIRMRPPRLPRPRPRPYHWPRP  -0.101
58. RRIRKRPPRLPRPRPRPCMCPRP  -0.0956
59. RRIRVRPPRLPRPRPRPWTCPRP  -0.0943
60. RRIRARPPRLPRPRPRPQSIPRP  -0.0868
61. RRIRIRPPRLPRPRPRPVAGPRP  -0.0858
62. RRIRTRPPRLPRPRPRPDKSPRP  -0.0816
63. RRIRKRPPRLPRPRPRPPMIPRP  -0.0795
64. RRIRGRPPRLPRPRPRPQKFPRP  -0.0494
65. RRIRQRPPRLPRPRPRPEDNPRP  -0.0442
66. RRIRVRPPRLPRPRPRPDMTPRP  -0.0435
67. RRIRDRPPRLPRPRPRPNAYPRP  -0.043
68. RRIRYRPPRLPRPRPRPDLVPRP  -0.0421
69. RRIRARPPRLPRPRPRPDECPRP  -0.0409
70. RRIRVRPPRLPRPRPRPENTPRP  -0.0389
71. RRIRERPPRLPRPRPRPNPEPRP  -0.0358
72. RRIRLRPPRLPRPRPRPVIPPRP  -0.0331
73. RRIRLRPPRLPRPRPRPFKDPRP  -0.023
74. RRIRCRPPRLPRPRPRPHQEPRP  -0.0176
75. RRIRPRPPRLPRPRPRPVQAPRP  -0.013
76. RRIRNRPPRLPRPRPRPFPGPRP  -0.00992
77. RRIRPRPPRLPRPRPRPFEEPRP  -0.00852
78. RRIRHRPPRLPRPRPRPRSTPRP  -0.00721
79. RRIRNRPPRLPRPRPRPYRFPRP  -0.00669
80. RRIRKRPPRLPRPRPRPHVSPRP  -0.00259
81. RRIRKRPPRLPRPRPRPFWHPRP  0.00192
82. RRIRNRPPRLPRPRPRPECQPRP  0.00386
83. RRIRFRPPRLPRPRPRPEEGPRP  0.00408
84. RRIRRRPPRLPRPRPRPMIVPRP  0.00521
85. RRIRIRPPRLPRPRPRPFGSPRP  0.00777
86. RRIRDRPPRLPRPRPRPDMLPRP  0.00888
87. RRIRNRPPRLPRPRPRPRHCPRP  0.00979
88. RRIRYRPPRLPRPRPRPTDDPRP  0.0131
89. RRIRRRPPRLPRPRPRPSSGPRP  0.0144
90. RRIRDRPPRLPRPRPRPMGGPRP  0.0169
91. RRIRTRPPRLPRPRPRPWSNPRP  0.0394
92. RRIRMRPPRLPRPRPRPPYEPRP  0.0457
93. RRIRIRPPRLPRPRPRPKRIPRP  0.0468
94. RRIRKRPPRLPRPRPRPVFPPRP  0.0527
95. RRIRQRPPRLPRPRPRPNLVPRP  0.0528
96. RRIRGRPPRLPRPRPRPFTNPRP  0.0545
97. RRIRFRPPRLPRPRPRPKCGPRP  0.0559
98. RRIRWRPPRLPRPRPRPMGIPRP  0.0704
99. RRIRKRPPRLPRPRPRPCYKPRP  0.0747
100. RRIRDRPPRLPRPRPRPMGVPRP  0.0778
101. RRIRPRPPRLPRPRPRPHPWPRP  0.0817
102. RRIRQRPPRLPRPRPRPGMCPRP  0.0819
103. RRIRCRPPRLPRPRPRPKPCPRP  0.084
104. RRIRVRPPRLPRPRPRPTCCPRP  0.095
105. RRIRRRPPRLPRPRPRPAGMPRP  0.102
106. RRIRWRPPRLPRPRPRPCRVPRP  0.103
107. RRIRRRPPRLPRPRPRPLFDPRP  0.136
108. RRIRNRPPRLPRPRPRPRVKPRP  0.139
109. RRIRLRPPRLPRPRPRPCADPRP  0.151
110. RRIRARPPRLPRPRPRPAGIPRP  0.156
111. RRIRKRPPRLPRPRPRPIWQPRP  0.163
112. RRIRWRPPRLPRPRPRPRRKPRP  0.178
113. RRIRQRPPRLPRPRPRPGVGPRP  0.18
114. RRIRIRPPRLPRPRPRPMRDPRP  0.189
115. RRIRGRPPRLPRPRPRPRMCPRP  0.197
116. RRIRMRPPRLPRPRPRPQAGPRP  0.214
117. RRIRWRPPRLPRPRPRPGGIPRP  0.22
118. RRIRKRPPRLPRPRPRPQCDPRP  0.279
119. RRIRDRPPRLPRPRPRPIGNPRP  0.279
120. RRIRKRPPRLPRPRPRPAGNPRP  0.304
121. RRIRQRPPRLPRPRPRPPGCPRP  0.342
122. RRIRWRPPRLPRPRPRPREFPRP  0.349
123. RRIRIRPPRLPRPRPRPGCGPRP  0.349
124. RRIRDRPPRLPRPRPRPTPSPRP  0.368
125. RRIRGRPPRLPRPRPRPVNDPRP  0.368
126. RRIRRRPPRLPRPRPRPDRFPRP  0.394
127. RRIRPRPPRLPRPRPRPARTPRP  0.396
128. RRIRSRPPRLPRPRPRPGVAPRP  0.42
129. RRIRWRPPRLPRPRPRPGRPPRP  0.42
130. RRIRRRPPRLPRPRPRPRTAPRP  0.458
131. RRIRRRPPRLPRPRPRPDAVPRP  0.462
132. RRIRARPPRLPRPRPRPGWRPRP  0.473
133. RRIRKRPPRLPRPRPRPKIWPRP  0.475
134. RRIRWRPPRLPRPRPRPFAPPRP  0.505
135. RRIRARPPRLPRPRPRPEMFPRP  0.522
136. RRIRLRPPRLPRPRPRPPDAPRP  0.524
137. RRIRSRPPRLPRPRPRPSAWPRP  0.555
138. RRIRSRPPRLPRPRPRPPRAPRP  0.567
139. RRIRPRPPRLPRPRPRPLPWPRP  0.592
140. RRIRARPPRLPRPRPRPLRKPRP  0.62
141. RRIRGRPPRLPRPRPRPQPNPRP  0.679
142. RRIRSRPPRLPRPRPRPKATPRP  0.7
143. RRIRGRPPRLPRPRPRPNEMPRP  0.703
144. RRIRGRPPRLPRPRPRPSFAPRP  0.723
145. RRIRMRPPRLPRPRPRPCDEPRP  0.877
146. RRIRKRPPRLPRPRPRPSWMPRP  0.93
147. RRIRGRPPRLPRPRPRPPRPPRP  1.08
148. RRIRMRPPRLPRPRPRPWPPPRP  1.09
149. RRIRGRPPRLPRPRPRPCVTPRP  1.34
150. RRIRRRPPRLPRPRPRPDGWPRP  1.45
